# Target: T1, human LAG-3 (full length, on the cell surface) (human, UniProt P18627 23-525)
# T1 construct: Full-length human LAG-3 expressed on cells; also called HEK293-hLAG-3; HEK293 cells transfected with LAG-3 gene
# T1 sequence: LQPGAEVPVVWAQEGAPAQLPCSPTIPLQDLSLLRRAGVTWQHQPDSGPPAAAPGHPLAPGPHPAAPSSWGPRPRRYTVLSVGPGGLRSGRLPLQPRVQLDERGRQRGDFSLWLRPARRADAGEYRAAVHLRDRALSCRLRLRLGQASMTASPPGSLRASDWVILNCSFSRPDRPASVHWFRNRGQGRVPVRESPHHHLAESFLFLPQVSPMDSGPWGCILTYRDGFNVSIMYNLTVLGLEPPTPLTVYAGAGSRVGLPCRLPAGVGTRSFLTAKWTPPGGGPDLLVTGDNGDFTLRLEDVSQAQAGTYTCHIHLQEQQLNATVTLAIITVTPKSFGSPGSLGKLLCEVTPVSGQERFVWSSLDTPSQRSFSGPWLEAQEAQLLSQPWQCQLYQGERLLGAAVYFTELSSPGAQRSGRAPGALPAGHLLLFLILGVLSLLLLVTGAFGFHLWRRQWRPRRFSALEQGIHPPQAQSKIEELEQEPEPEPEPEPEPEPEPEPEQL
# Assay: FACS, HEK293-hLAG-3; 1.600 nM
# Description: (§1) The pIRES plasmid with the monkey-derived full-length gene was transfected into the HEK293 cell line to construct a HEK293 stable cell line containing monkey LAG-3 (herein referred to as HEK293-cLAG-3 stable cell line). The HEK293-hLAG-3 stable cell line and HEK293-cLAG-3 stable cell line were expanded in a T-75 cell culture flask to a 90% confluence. The medium was aspirated, and the cells were washed with HBSS (Hanks' Balanced Salt Solution) 1-2 times, then treated with a enzyme-free cell dissociation fluid (Versene solution: Life technology) and the cells were collected. The cells were washed with HBSS buffer for 1-2 times. After counted, the cells were diluted with HBSS to 1-2×10⁶ cells per ml, added with 1% goat serum blocking solution, incubated on ice for 20-30 minutes, and then washed with HBSS for 2 times by centrifugation. The collected cells were suspended in the FACS buffer (HBSS+1% BSA) to 2×10⁶ cells/ml, added as 100 microliters per well to a 96-well FACS reaction plate, added with 100 microliters per well of the antibody sample to be tested, incubated on ice for 1-2 hours. The plate was washed twice with the FACS buffer by centrifugation, added with 100 microliters of fluorescent (Alexa 488)-labeled secondary antibodies per well, and incubated on ice for 0.5-1.0 hours. The plate was washed 2-3 times with FACS buffer by centrifugation, added with 100 μl fixative solution (4% Paraformaldehyde) per well to suspend the cells. 5-10 minutes later, it was washed 1-2 times with FACS buffer by centrifugation. The cells were suspended with 100 microliters of FACS buffer, FACS (FACSCalibur, BD) was used for detection and the results were analyzed.
row,Binder,Mean fluorescence intensity
1,"556F6B8 (mouse antibody purified from hybridoma) (antibody, V domains shown, also called mAb123-556F6B8) VH: RVQLKQSGPGLVQPSQSLSITCTVSGFSLIKYGVHWVRQSPGEGLEWLGVIWRGGITDYNAAFMSRLSITKDNSKSQVFFKMNSLQADDTAIYYCAKWDGPLAMDYWGQGTSVTVSS VL: DIVMTQSHKFLSTSVGDRVSITCKASQDVGTTVAWYQQKPGQSPKLLIYWASTRHTGVPDRFTGSGSGTDFTLTISNVQSEDLADYFCQQYSSYPYTFGGGTKLEIK",43.5 MFI
2,"405B8H3 (mouse antibody purified from hybridoma) (antibody, V domains shown, also called mAb103-405B8H3; 405B81-13) VH: QVQLQQSGAELVRPGASVTLSCKASGYTFTDYEMHWVKQTPVHGLEWIGATDPETGNSAYNQKFKGKAIMTADKSSSTAYMELRSLTSEDSAVYYCISTGWNDWGQGTSLTVSS VL: DIKMTQSPSSMYASLGERVTITCKASQDINSYLSWFQQKPGKSPKTLIYRADRLLDGVPSRFSGSGSGQDYSLTISSLEYGDMGIYYCLQYDEFPYTFGGGTKLEIK",99.4 MFI
3,"105F1E10 (mouse antibody purified from hybridoma) (antibody, V domains shown, also called mAb009-105F1E10) VH: EVQLQQSGPELVKPGASVKMSCRASGYTFTDFKMHWMKQSHGKSLEWIGYIAPNNGGTAYNQKFRGKATLTVNESSNTAYMELRSLTSEDSAVYYCVDWDDVDYWGQGTTLTVSS VL: DIKMTQSPSSMYASLGERVTITCKASQDINSYLSWFQQKSGKSPKTLIYRANRLVDGVPSRFSGSGSGQDYSLTISSLEYEDMGIYYCLQYVEFPLTFGAGTKLELK",86.2 MFI
4,"409B11E12 (mouse antibody purified from hybridoma) (antibody, V domains shown, also called mAb104-409B11E12) VH: QVQLQQSGAELVRPGASVTLSCKASGYTFTDYEMHWVKQTTVHGLEWIGATDPETSYSAYNQKFKGKAILTADKSSSTAYMELRSLTSEDSAVYYCIATGWNDWGQGTSLTVSS VL: DLKMTQSPSSMYASLGERVTITCKASQDINSYLSWFQQKPGKSPKTLIYRANRLLDGVPSRFSGSGSGQDYSLTISSLEYEDMGIYYCLQYDEFPYTFGGGTKLEIK",55.6 MFI
5,"409D4E10 (mouse antibody purified from hybridoma) (antibody, V domains shown, also called mAb112-409D4E10) VH: QVQLQQSGAELVRPGASVTLSCKASGNTFTDYEMHWVKQTPVHGLEWIGATDPETDNTAYNQKFKGKAILTTDKSSSTAYMELRSLTSEDSAVYYCITSGWNDWGQGTSLTVSS VL: DIKMTQSPSSMYASLGERVTITCKASQDINSYLSWFQQKPGKSPKTLIYRANRLLDGVPSRFSGSGSGQDYSLTISSLEYEDMGIYYCLQYNEFPYTFGGGTKLEIK",48 MFI

# Target: T2, monkey LAG-3 on cells (HEK293-cLAG-3 stable cell line) (monkey, UniProt P18627 24-525 (human entry))
# T2 construct: Full-length monkey (Chinese monkey) LAG-3 gene expressed on HEK293 cells
# T2 chain: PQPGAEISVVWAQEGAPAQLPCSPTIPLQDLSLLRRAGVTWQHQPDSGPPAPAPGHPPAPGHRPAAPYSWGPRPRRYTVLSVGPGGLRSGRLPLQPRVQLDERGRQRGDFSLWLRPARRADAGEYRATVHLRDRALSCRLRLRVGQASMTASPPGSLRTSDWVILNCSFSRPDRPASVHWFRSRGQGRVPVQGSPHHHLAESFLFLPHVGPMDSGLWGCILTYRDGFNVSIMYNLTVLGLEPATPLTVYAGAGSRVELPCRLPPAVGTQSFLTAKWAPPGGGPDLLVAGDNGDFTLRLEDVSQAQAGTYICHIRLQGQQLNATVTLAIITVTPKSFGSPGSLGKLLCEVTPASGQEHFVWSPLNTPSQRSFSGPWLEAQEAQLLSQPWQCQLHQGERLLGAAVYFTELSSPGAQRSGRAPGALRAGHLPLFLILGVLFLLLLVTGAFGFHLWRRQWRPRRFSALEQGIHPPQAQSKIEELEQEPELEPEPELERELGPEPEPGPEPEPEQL
# Assay: FACS, HEK293-cLAG-3, antibody 8.000 nM
# Description: as §1
row,Binder,Mean fluorescence intensity
1,"556F6B8 mouse-human chimeric antibody (antibody, V domains shown, also called mAb123-556F6B8; 556F8B8) VH: RVQLKQSGPGLVQPSQSLSITCTVSGFSLIKYGVHWVRQSPGEGLEWLGVIWRGGITDYNAAFMSRLSITKDNSKSQVFFKMNSLQADDTAIYYCAKWDGPLAMDYWGQGTSVTVSS VL: DIVMTQSHKFLSTSVGDRVSITCKASQDVGTTVAWYQQKPGQSPKLLIYWASTRHTGVPDRFTGSGSGTDFTLTISNVQSEDLADYFCQQYSSYPYTFGGGTKLEIK",42.5
2,"105F1E10 mouse-human chimeric antibody (antibody, V domains shown, also called mAb009-105F1E10) VH: EVQLQQSGPELVKPGASVKMSCRASGYTFTDFKMHWMKQSHGKSLEWIGYIAPNNGGTAYNQKFRGKATLTVNESSNTAYMELRSLTSEDSAVYYCVDWDDVDYWGQGTTLTVSS VL: DIKMTQSPSSMYASLGERVTITCKASQDINSYLSWFQQKSGKSPKTLIYRANRLVDGVPSRFSGSGSGQDYSLTISSLEYEDMGIYYCLQYVEFPLTFGAGTKLELK",37.9

# Target: T2, monkey LAG-3 on cells (HEK293-cLAG-3 …)
# Assay: FACS, HEK293-cLAG-3, antibody 0.013 nM
# Description: as §1
row,Binder,Mean fluorescence intensity
1,"556F6B8 mouse-human chimeric antibody (antibody, V domains shown, also called mAb123-556F6B8; 556F8B8) VH: RVQLKQSGPGLVQPSQSLSITCTVSGFSLIKYGVHWVRQSPGEGLEWLGVIWRGGITDYNAAFMSRLSITKDNSKSQVFFKMNSLQADDTAIYYCAKWDGPLAMDYWGQGTSVTVSS VL: DIVMTQSHKFLSTSVGDRVSITCKASQDVGTTVAWYQQKPGQSPKLLIYWASTRHTGVPDRFTGSGSGTDFTLTISNVQSEDLADYFCQQYSSYPYTFGGGTKLEIK",3.46
2,"105F1E10 mouse-human chimeric antibody (antibody, V domains shown, also called mAb009-105F1E10) VH: EVQLQQSGPELVKPGASVKMSCRASGYTFTDFKMHWMKQSHGKSLEWIGYIAPNNGGTAYNQKFRGKATLTVNESSNTAYMELRSLTSEDSAVYYCVDWDDVDYWGQGTTLTVSS VL: DIKMTQSPSSMYASLGERVTITCKASQDINSYLSWFQQKSGKSPKTLIYRANRLVDGVPSRFSGSGSGQDYSLTISSLEYEDMGIYYCLQYVEFPLTFGAGTKLELK",2.89

# Target: T3, human LAG-3 protein with hFc tag (hLAG-3-hFc protein) (human, UniProt P18627 23-450)
# T3 construct: also called immunogen 1; LAG-3 extracellular domain protein; not shown: human IgG Fc fragment (hFc) of the pCpC vector
# T3 sequence: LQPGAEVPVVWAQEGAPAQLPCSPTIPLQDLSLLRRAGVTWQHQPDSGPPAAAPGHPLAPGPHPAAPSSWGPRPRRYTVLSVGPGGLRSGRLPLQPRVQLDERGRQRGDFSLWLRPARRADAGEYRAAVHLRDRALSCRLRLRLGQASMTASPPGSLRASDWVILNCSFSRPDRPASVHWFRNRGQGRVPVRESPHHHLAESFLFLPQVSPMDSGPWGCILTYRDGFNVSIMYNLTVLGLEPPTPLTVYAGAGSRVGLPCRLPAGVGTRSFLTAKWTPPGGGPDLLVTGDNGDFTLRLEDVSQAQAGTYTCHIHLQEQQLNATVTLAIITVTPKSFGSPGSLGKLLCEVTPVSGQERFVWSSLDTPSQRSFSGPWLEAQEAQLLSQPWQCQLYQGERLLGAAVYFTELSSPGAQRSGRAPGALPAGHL
# Assay: ELISA, hLAG-3-hFc coated; 6.6667 nM
# Protocol: The plate was sealed with plastic film and incubated overnight at 4° C. The plate was washed 2 times with the plate washing solution (PBS+0.01% Tween20) on the next day, and added with the blocking solution (PBS+0.01% Tween20+1% BSA) and blocked at room temperature for 1-2 hours. The blocking solution was poured out, and the plate was added with 50-100 μl of the antibody sample to be tested to each well, incubated at 37° C. for 1-2 hours, and washed 2-3 times with a plate washing solution (PBS+0.01% Tween20). HRP (horseradish peroxidase) labeled secondary antibody was added, and the plate was incubated at 37° C. for 1-2 hours, and washed 2-3 times with a plate washing solution (PBS+0.01% Tween20). 100 μl of TMB substrate was added to each well. After incubated at room temperature for 15-30 minutes, the plate was added with 100 μl of stop solution (1.0N HCl) to each well.
row,Binder,OD450
1,"556F6B8 (LAG-3 mouse-human chimeric antibody) (antibody, V domains shown, also called 556F8B8) VH: RVQLKQSGPGLVQPSQSLSITCTVSGFSLIKYGVHWVRQSPGEGLEWLGVIWRGGITDYNAAFMSRLSITKDNSKSQVFFKMNSLQADDTAIYYCAKWDGPLAMDYWGQGTSVTVSS VL: DIVMTQSHKFLSTSVGDRVSITCKASQDVGTTVAWYQQKPGQSPKLLIYWASTRHTGVPDRFTGSGSGTDFTLTISNVQSEDLADYFCQQYSSYPYTFGGGTKLEIK",3.73 OD450
2,"405B8H3 (LAG-3 mouse-human chimeric antibody) (antibody, V domains shown, also called mouse-human chimeric antibody 405B8H3) VH: QVQLQQSGAELVRPGASVTLSCKASGYTFTDYEMHWVKQTPVHGLEWIGATDPETGNSAYNQKFKGKAIMTADKSSSTAYMELRSLTSEDSAVYYCISTGWNDWGQGTSLTVSS VL: DIKMTQSPSSMYASLGERVTITCKASQDINSYLSWFQQKPGKSPKTLIYRADRLLDGVPSRFSGSGSGQDYSLTISSLEYGDMGIYYCLQYDEFPYTFGGGTKLEIK",3.54 OD450
3,"105F1E10 (LAG-3 mouse-human chimeric antibody) (antibody, V domains shown) VH: EVQLQQSGPELVKPGASVKMSCRASGYTFTDFKMHWMKQSHGKSLEWIGYIAPNNGGTAYNQKFRGKATLTVNESSNTAYMELRSLTSEDSAVYYCVDWDDVDYWGQGTTLTVSS VL: DIKMTQSPSSMYASLGERVTITCKASQDINSYLSWFQQKSGKSPKTLIYRANRLVDGVPSRFSGSGSGQDYSLTISSLEYEDMGIYYCLQYVEFPLTFGAGTKLELK",3.53 OD450
4,"409D4E10 (LAG-3 mouse-human chimeric antibody) (antibody, V domains shown) VH: QVQLQQSGAELVRPGASVTLSCKASGNTFTDYEMHWVKQTPVHGLEWIGATDPETDNTAYNQKFKGKAILTTDKSSSTAYMELRSLTSEDSAVYYCITSGWNDWGQGTSLTVSS VL: DIKMTQSPSSMYASLGERVTITCKASQDINSYLSWFQQKPGKSPKTLIYRANRLLDGVPSRFSGSGSGQDYSLTISSLEYEDMGIYYCLQYNEFPYTFGGGTKLEIK",3.73 OD450
5,"409B11E12 (LAG-3 mouse-human chimeric antibody) (antibody, V domains shown) VH: QVQLQQSGAELVRPGASVTLSCKASGYTFTDYEMHWVKQTTVHGLEWIGATDPETSYSAYNQKFKGKAILTADKSSSTAYMELRSLTSEDSAVYYCIATGWNDWGQGTSLTVSS VL: DLKMTQSPSSMYASLGERVTITCKASQDINSYLSWFQQKPGKSPKTLIYRANRLLDGVPSRFSGSGSGQDYSLTISSLEYEDMGIYYCLQYDEFPYTFGGGTKLEIK",3.64 OD450
